Measured values reported in US20130039933.

Columns and labels:
[1] = biological target: S366 peptide (STING peptide substrate with serine 366)
[2] = biological target: A366 peptide (STING peptide substrate with alanine at 366)

| Protein | Activity (cpm) [1] | Fold induction [1] | Activity (cpm) [2] |
| --- | --- | --- | --- |
| TBK1 (protein kinase of the kinase panel) (protein) MQSTSNHLWLLSDILGQGATANVFRGRHKKTGDLFAIKVFNNISFLRPVDVQMREFEVLKKLNHKNIVKLFAIEEETTTRHKVLIMEFCPCGSLYTVLEEPSNAYGLPESEFLIVLRDVVGGMNHLRENGIVHRDIKPGNIMRVIGEDGQSVYKLTDFGAARELEDDEQFVSLYGTEEYLHPDMYERAVLRKDHQKKYGATVDLWSIGVTFYHAATGSLPFRPFEGPRRNKEVMYKIITGKPSGAISGVQKAENGPIDWSGDMPVSCSLSRGLQVLLTPVLANILEADQEKCWGFDQFFAETSDILHRMVIHVFSLQQMTAHKIYIHSYNTATIFHELVYKQTKIISSNQELIYEGRRLVLEPGRLAQHFPKTTEENPIFVVSREPLNTIGLIYEKISLPKVHPRYDLDGDASMAKAITGVVCYACRIASTLLLYQELMRKGIRWLIELIKDDYNETVHKKTEVVITLDFCIRNIEKTVKVYEKLMKINLEAAELGEISDIHTKLLRLSSSQGTIETSLQDIDSRLSPGGSLADAWAHQEGTHPKDRNVEKLQVLLNCMTEIYYQFKKDKAERRLAYNEEQIHKFDKQKLYYHATKAMTHFTDECVKKYEAFLNKSEEWIRKMLHLRKQLLSLTNQCFDIEEEVSKYQEYTNELQETLPQKMFTASSGIKHTMTPIYPSSNTLVEMTLGMKKLKEEMEGVVKELAENNHILERFGSLTMDGGLRNVDCL | 16700 cpm | 2.52 fold | 6600 cpm |
| ULK1 (protein) MEPGRGGTETVGKFEFSRKDLIGHGAFAVVFKGRHREKHDLEVAVKCINKKNLAKSQTLLGKEIKILKELKHENIVALYDFQEMANSVYLVMEYCNGGDLADYLHAMRTLSEDTIRLFLQQIAGAMRLLHSKGIIHRDLKPQNILLSNPAGRRANPNSIRVKIADFGFARYLQSNMMAATLCGSPMYMAPEVIMSQHYDGKADLWSIGTIVYQCLTGKAPFQASSPQDLRLFYEKNKTLVPTIPRETSAPLRQLLLALLQRNHKDRMDFDEFFHHPFLDASPSVRKSPPVPVPSYPSSGSGSSSSSSSTSHLASPPSLGEMQQLQKTLASPADTAGFLHSSRDSGGSKDSSCDTDDFVMVPAQFPGDLVAEAPSAKPPPDSLMCSGSSLVASAGLESHGRTPSPSPPCSSSPSPSGRAGPFSSSRCGASVPIPVPTQVQNYQRIERNLQSPTQFQTPRSSAIRRSGSTSPLGFARASPSPPAHAEHGGVLARKMSLGGGRPYTPSPQVGTIPERPGWSGTPSPQGAEMRGGRSPRPGSSAPEHSPRTSGLGCRLHSAPNLSDLHVVRPKLPKPPTDPLGAVFSPPQASPPQPSHGLQSCRNLRGSPKLPDFLQRNPLPPILGSPTKAVPSFDFPKTPSSQNLLALLARQ | 209000 cpm | 17.1 fold | 12200 cpm |
| ULK2 (protein) MEVVGDFEYSKRDLVGHGAFAVVFRGRHRQKTDWEVAIKSINKKNLSKSQILLGKEIKILKELQHENIVALYDVQELPNSVFLVMEYCNGGDLADYLQAKGTLSEDTIRVFLHQIAAAMRILHSKGIIHRDLKPQNILLSYANRRKSSVSGIRIKIADFGFARYLHSNMMAATLCGSPMYMAPEVIMSQHYDAKADLWSIGTVIYQCLVGKPPFQANSPQDLRMFYEKNRSLMPSIPRETSPYLANLLLGLLQRNQKDRMDFEAFFSHPFLEQGPVKKSCPVPVPMYSGSVSGSSCGSSPSCRFASPPSLPDMQHIQEENLSSPPLGPPNYLQVSKDSASTSSKNSSCDTDDFVLVPHNISSDHSCDMPVGTAGRRASNEFLVCGGQCQPTVSPHSETAPIPVPTQIRNYQRIEQNLTSTASSGTNVHGSPRSAVVRRSNTSPMGFLRPGSCSPVPADTAQTVGRRLSTGSSRPYSPSPLVGTIPEQFSQCCCGHPQGHDSRSRNSSGSPVPQAQSPQSLLSGARLQSAPTLTDIYQNKQKLRKQHSDPVCPSHTGAGYSYSPQPSRPGSLGTSPTKHLGSSPRSSDWFFKTPLPTIIGSPTKTTAPFKIPKTQASSNLLALVTRHGPAEE | 156000 cpm | 21.1 fold | 7380 cpm |
